# Measurements from patent US20230203469A1.
# Key:
# Assay in all cases: cell-based or functional assay
# [1] = molecular target: recombinant VWF (full-length, multimeric rVWF) (UniProt P04275)
# FRETS-VWF73 substrate = FRETS-VWF73 substrate (UniProt P04275)
# [2] = molecular target: von Willebrand factor (VWF), substrate of the in vitro cleavage of Table 1 (UniProt P04275)
substance,measurement,setting,value
rADAMTS13 batches composed of a mixture of wildtype rADAMTS13 and Q97R variant,"cleavage of multimeric rVWF [%]; Sample 1, 59 % Q97R",[1],58%
same,"cleavage of multimeric rVWF [%]; Sample 2, 64 % Q97R",[1],52%
same,"cleavage of multimeric rVWF [%]; Sample 3, 59 % Q97R",[1],51%
same,"cleavage of multimeric rVWF [%]; Sample 4, 56 % Q97R",[1],60%
same,"cleavage of multimeric rVWF [%]; Sample 5, 55 % Q97R",[1],52%
same,"cleavage of multimeric rVWF [%]; Sample 6, 64 % Q97R",[1],57%
same,"cleavage of multimeric rVWF [%]; Sample 7, 66 % Q97R",[1],62%
same,"cleavage of multimeric rVWF [%]; Sample 9, 67 % Q97R",[1],62%
same,"cleavage of multimeric rVWF [%]; Sample 10, 67 % Q97R",[1],60%
same,"cleavage of multimeric rVWF [%]; Sample 11, 60 % Q97R",[1],61%
same,"cleavage of multimeric rVWF [%]; Sample 12, 60 % Q97R",[1],59%
same,"cleavage of multimeric rVWF [%]; Sample 13, 71 % Q97R",[1],60%
same,"cleavage of multimeric rVWF [%]; Sample 14, 59 % Q97R",[1],55%
same,"cleavage of multimeric rVWF [%]; Sample 15, 52 % Q97R",[1],59%
same,"cleavage of multimeric rVWF [%]; Sample 16, 57 % Q97R",[1],66%
same,"cleavage of multimeric rVWF [%]; Sample 17, 61 % Q97R",[1],58%
same,"cleavage of multimeric rVWF [%]; Sample 18, 63 % Q97R",[1],55%
same,"cleavage of multimeric rVWF [%]; Sample 19, 54 % Q97R",[1],78%
same,"cleavage of multimeric rVWF [%]; Sample 20, 64 % Q97R",[1],78%
same,"cleavage of multimeric rVWF [%]; Sample 21, 64 % Q97R",[1],75%
same,"cleavage of multimeric rVWF [%]; Sample 22, 66 % Q97R",[1],65%
same,"cleavage of multimeric rVWF [%]; Sample 23, 61 % Q97R",[1],66%
same,"cleavage of multimeric rVWF [%]; Sample 24, 62 % Q97R",[1],63%
same,"cleavage of multimeric rVWF [%]; Sample 25, 61 % Q97R",[1],63%
same,"cleavage of multimeric rVWF [%]; Sample 26, 61 % Q97R",[1],67%
same,"cleavage of multimeric rVWF [%]; Sample 27, 59 % Q97R",[1],67%
same,"cleavage of multimeric rVWF [%]; Sample 28, 60 % Q97R",[1],67%
same,"cleavage of multimeric rVWF [%]; Sample 29, 55 % Q97R",[1],68%
same,"cleavage of multimeric rVWF [%]; Sample 30, 60 % Q97R",[1],67%
same,"cleavage of multimeric rVWF [%]; Sample 31, 64 % Q97R",[1],71%
same,"cleavage of multimeric rVWF [%]; Sample 32, 60 % Q97R",[1],62%
same,"cleavage of multimeric rVWF [%]; Sample 33, 65 % Q97R",[1],78%
same,"cleavage of multimeric rVWF [%]; Sample 34, 61 % Q97R",[1],65%
same,"cleavage of multimeric rVWF [%]; Sample 35, 72 % Q97R",[1],66%
same,"specific activity U/mg (UV); Sample 1, 59 % Q97R",FRETS-VWF73 substrate,1640 U/mg (UV)
same,"specific activity U/mg (UV); Sample 2, 64 % Q97R",FRETS-VWF73 substrate,1580 U/mg (UV)
same,"specific activity U/mg (UV); Sample 3, 59 % Q97R",FRETS-VWF73 substrate,1400 U/mg (UV)
same,"specific activity U/mg (UV); Sample 4, 56 % Q97R",FRETS-VWF73 substrate,1460 U/mg (UV)
same,"specific activity U/mg (UV); Sample 5, 55 % Q97R",FRETS-VWF73 substrate,1360 U/mg (UV)
same,"specific activity U/mg (UV); Sample 6, 64 % Q97R",FRETS-VWF73 substrate,1470 U/mg (UV)
same,"specific activity U/mg (UV); Sample 7, 66 % Q97R",FRETS-VWF73 substrate,2040 U/mg (UV)
same,"specific activity U/mg (UV); Sample 8, 70 % Q97R",FRETS-VWF73 substrate,1610 U/mg (UV)
same,"specific activity U/mg (UV); Sample 9, 67 % Q97R",FRETS-VWF73 substrate,1480 U/mg (UV)
same,"specific activity U/mg (UV); Sample 10, 67 % Q97R",FRETS-VWF73 substrate,1450 U/mg (UV)
same,"specific activity U/mg (UV); Sample 11, 60 % Q97R",FRETS-VWF73 substrate,1580 U/mg (UV)
same,"specific activity U/mg (UV); Sample 12, 60 % Q97R",FRETS-VWF73 substrate,1620 U/mg (UV)
same,"specific activity U/mg (UV); Sample 13, 71 % Q97R",FRETS-VWF73 substrate,1970 U/mg (UV)
same,"specific activity U/mg (UV); Sample 14, 59 % Q97R",FRETS-VWF73 substrate,1390 U/mg (UV)
same,"specific activity U/mg (UV); Sample 15, 52 % Q97R",FRETS-VWF73 substrate,1330 U/mg (UV)
same,"specific activity U/mg (UV); Sample 16, 57 % Q97R",FRETS-VWF73 substrate,1410 U/mg (UV)
same,"specific activity U/mg (UV); Sample 17, 61 % Q97R",FRETS-VWF73 substrate,1380 U/mg (UV)
same,"specific activity U/mg (UV); Sample 18, 63 % Q97R",FRETS-VWF73 substrate,1440 U/mg (UV)
same,"specific activity U/mg (UV); Sample 19, 54 % Q97R",FRETS-VWF73 substrate,1660 U/mg (UV)
same,"specific activity U/mg (UV); Sample 20, 64 % Q97R",FRETS-VWF73 substrate,1700 U/mg (UV)
same,"specific activity U/mg (UV); Sample 21, 64 % Q97R",FRETS-VWF73 substrate,1690 U/mg (UV)
same,"specific activity U/mg (UV); Sample 22, 66 % Q97R",FRETS-VWF73 substrate,1620 U/mg (UV)
same,"specific activity U/mg (UV); Sample 23, 61 % Q97R",FRETS-VWF73 substrate,1540 U/mg (UV)
same,"specific activity U/mg (UV); Sample 24, 62 % Q97R",FRETS-VWF73 substrate,1510 U/mg (UV)
same,"specific activity U/mg (UV); Sample 25, 61 % Q97R",FRETS-VWF73 substrate,1530 U/mg (UV)
same,"specific activity U/mg (UV); Sample 26, 61 % Q97R",FRETS-VWF73 substrate,1760 U/mg (UV)
same,"specific activity U/mg (UV); Sample 27, 59 % Q97R",FRETS-VWF73 substrate,1860 U/mg (UV)
same,"specific activity U/mg (UV); Sample 28, 60 % Q97R",FRETS-VWF73 substrate,1750 U/mg (UV)
same,"specific activity U/mg (UV); Sample 29, 55 % Q97R",FRETS-VWF73 substrate,1730 U/mg (UV)
same,"specific activity U/mg (UV); Sample 30, 60 % Q97R",FRETS-VWF73 substrate,1850 U/mg (UV)
same,"specific activity U/mg (UV); Sample 31, 64 % Q97R",FRETS-VWF73 substrate,1800 U/mg (UV)
same,"specific activity U/mg (UV); Sample 32, 60 % Q97R",FRETS-VWF73 substrate,1750 U/mg (UV)
same,"specific activity U/mg (UV); Sample 33, 65 % Q97R",FRETS-VWF73 substrate,1620 U/mg (UV)
same,"specific activity U/mg (UV); Sample 34, 61 % Q97R",FRETS-VWF73 substrate,1720 U/mg (UV)
same,"specific activity U/mg (UV); Sample 35, 72 % Q97R",FRETS-VWF73 substrate,1650 U/mg (UV)
same,"IU VWF RCo/ml left; ADAMTS13 0.1 U/ml, 0 h (IU VWF RCo/ml)",[2],0.72
same,"IU VWF RCo/ml left; ADAMTS13 0.1 U/ml, 15 seconds (IU VWF RCo/ml)",[2],0.33
same,"IU VWF RCo/ml left; ADAMTS13 0.1 U/ml, 30 seconds (IU VWF RCo/ml)",[2],0.34
same,"IU VWF RCo/ml left; ADAMTS13 0.1 U/ml, 1 minute (IU VWF RCo/ml)",[2],0.3
same,"IU VWF RCo/ml left; ADAMTS13 0.1 U/ml, 2 minutes (IU VWF RCo/ml)",[2],0.24
same,"IU VWF RCo/ml left; ADAMTS13 0.1 U/ml, 5 minutes (IU VWF RCo/ml)",[2],< 0.17
same,"IU VWF RCo/ml left; ADAMTS13 0.5 U/ml, 0 h (IU VWF RCo/ml)",[2],0.78
same,"IU VWF RCo/ml left; ADAMTS13 0.5 U/ml, 15 seconds (IU VWF RCo/ml)",[2],< 0.17
same,"IU VWF RCo/ml left; ADAMTS13 0.5 U/ml, 30 seconds (IU VWF RCo/ml)",[2],< 0.17
same,"IU VWF RCo/ml left; ADAMTS13 0.5 U/ml, 1 minute (IU VWF RCo/ml)",[2],< 0.17
same,"IU VWF RCo/ml left; ADAMTS13 0.5 U/ml, 2 minutes (IU VWF RCo/ml)",[2],< 0.17
same,"IU VWF RCo/ml left; ADAMTS13 0.5 U/ml, 5 minutes (IU VWF RCo/ml)",[2],< 0.17
same,"IU VWF RCo/ml left; ADAMTS13 1.0 U/ml, 0 h (IU VWF RCo/ml)",[2],0.56
same,"IU VWF RCo/ml left; ADAMTS13 1.0 U/ml, 15 seconds (IU VWF RCo/ml)",[2],< 0.17
same,"IU VWF RCo/ml left; ADAMTS13 1.0 U/ml, 30 seconds (IU VWF RCo/ml)",[2],< 0.17
same,"IU VWF RCo/ml left; ADAMTS13 1.0 U/ml, 1 minute (IU VWF RCo/ml)",[2],< 0.17
same,"IU VWF RCo/ml left; ADAMTS13 1.0 U/ml, 2 minutes (IU VWF RCo/ml)",[2],< 0.17
same,"IU VWF RCo/ml left; ADAMTS13 1.0 U/ml, 5 minutes (IU VWF RCo/ml)",[2],< 0.17
